The results in this text go back to paper PMC3087496 (Biochemistry, 2011).

The target of this test is wild-type His6-Gαi1 (rat, UniProt P10824 1-354). The experiment in a line: SEC.
Sequence of wild-type His6-Gαi1 (P10824 whole entry): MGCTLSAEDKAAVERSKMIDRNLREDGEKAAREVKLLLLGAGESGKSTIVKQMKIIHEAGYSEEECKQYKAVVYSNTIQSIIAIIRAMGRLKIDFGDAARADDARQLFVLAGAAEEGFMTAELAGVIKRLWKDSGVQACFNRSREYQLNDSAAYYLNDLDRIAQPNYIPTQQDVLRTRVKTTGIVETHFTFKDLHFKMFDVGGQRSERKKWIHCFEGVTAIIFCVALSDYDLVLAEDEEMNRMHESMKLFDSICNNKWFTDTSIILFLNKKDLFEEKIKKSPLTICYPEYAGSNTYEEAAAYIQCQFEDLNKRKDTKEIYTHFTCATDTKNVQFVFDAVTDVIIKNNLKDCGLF

B1: TxHis6-ΔRGS14 (encoding amino acids 299-544, including the RBD domains and GL domain) (domain or fragment, rat, UniProt O08773 299-544, looked up)
chain: GKYCCVYLPDGTASLALARPGLTIRDMLAGICEKRGLSLPDIKVYLVGKEQKALVLDQDCTVLADQEVRLENRITFQLELVGLERVVRISAKPTKRLQEALQPILAKHGLSLDQVVLHRPGEKQLVDLENLVSSVASQTLVLDTLPDAKTREASSIPPCRSQGCLPRTQTKDSHLPPLSSSLSVEDASGSTGKRQTCDIEGLVELLNRVQSSGAHDQRGLLRKEDLVLPEFLQLPSQRPGSQEAPP
Consider B1, for which the binding result is “binds”.
